One protein from patent US20100081620 can be followed below.

In the data set the target is T1, Dabcyl-LAQAHomoPheRSC(Fluorescein)-NH2.
T1 chain: LAQAFRSC
Briefly: enzyme kinetics, initial velocities fitted to a pure competitive two-site model.

B1: Human ADAM10 protease containing the catalytic/disintegrin domains (protein)
chain: TTSAEKNTCQLYIQTDHLFFKYYGTREAVIAQISSHVKAIDTIYQTTDFSGIRNISFMVKRIRINTTADEKDPTNPFRFPNIGVEKFLELNSEQNHDDYCLAYVFTDRDFDDGVLGLAWVGAPSGSSGGICEKSKLYSDGKKKSLNTGIITVQNYGSHVPPKVSHITFAHEVGHNFGSPHDSGTECTPGESKNLGQKENGNYIMYARATSGDKLNNNKFSLCSIRNISQVLEKKRNNCFVESGQPICGNGMVEQGEECDCGYSDQCKDECCFDANQPEGRKCKLKPGKQCSPSQGPCCTAQCAFKSKSEKCRDDSDCAREGICNGFTALCPASDPKPNFTDCNRHTQVCINGQCAGSICEKYGLEECTCASSDGKDDKELCHVCCMKKMDPSTCASTGSVQWSRHFSGRTITLQPGSPCNDFRGYCDVFMRCRLVDADGPLARLKKAIFSPELYENIAE
As for B1, the “Ks (binding constant for substrate)” value is listed as “the binding constant, Ks for substrate was 16±4.6 µM”.
